Assay results reported in patent WO2010064089A1 (dated 2010).

Molecular target: human c-Met receptor on tumor cells (A549, NCI-H441, BxPC3) (human, UniProt P08581 25-1390)
Experiment: cell-based or functional assay

Binder	inhibition of HGF-induced proliferation of NCI-H441 cells (Figure 14A)	inhibition of HGF-induced proliferation of NCI-H441 cells (Figure 14B)	inhibition of HGF-induced proliferation of NCI-H441 cells (Figure 15)
murine 224G11 Mab (antibody, mouse IgG1, V domains shown) VH: EVQLQQSGPELVKPGASVKISCKTSGYIFTAYTMHWVRQSLGESLDWIGGIKPNNGLANYNQKFKGKATLTVDKSSSTAYMDLRSLTSEDSAVYYCARSEITTEFDYWGQGTALTVSS VL: DIVLTQSPASLAVSLGQRATISCRASESVDSYANSFMHWYQQKPGQPPKLLIYRASNLESGIPARFSGSGSRTDFTLTINPVEADDVATYYCQQSKEDPLTFGSGTKLEMKR	66%	57%	74%
[224G11]chim (antibody, human IgG1, V domains shown) VH: EVQLQQSGPELVKPGASVKISCKTSGYIFTAYTMHWVRQSLGESLDWIGGIKPNNGLANYNQKFKGKATLTVDKSSSTAYMDLRSLTSEDSAVYYCARSEITTEFDYWGQGTALTVSS VL: DIVLTQSPASLAVSLGQRATISCRASESVDSYANSFMHWYQQKPGQPPKLLIYRASNLESGIPARFSGSGSRTDFTLTINPVEADDVATYYCQQSKEDPLTFGSGTKLEMKR	19%		33%
[224G11][Hz1] (antibody, V domains shown) VH: QVQLVQSGAEVKKPGASVKVSCKASGYIFTAYTMHWVRQAPGQGLEWMGWIKPNNGLANYAQKFQGRVTMTRDTSISTAYMELSRLRSDDTAVYYCARSEITTEFDYWGQGTLVTVSS VL: DIVLTQSPDSLAVSLGERATINCKSSESVDSYANSFMHWYQQKPGQPPKLLIYRASTRESGVPDRFSGSGSRTDFTLTISSLQAEDVAVYYCQQSKEDPLTFGGGTKVEIKR	~46%		
[224G11][Hz2] (antibody, V domains shown) VH: QVQLVQSGAEVKKPGASVKVSCKASGYIFTAYTMHWVRQAPGQGLEWMGWIKPNNGLANYAQKFQGRVTMTRDTSISTAYMELSRLRSDDTAVYYCARSEITTEFDYWGQGTLVTVSS VL: DIVMTQSPDSLAVSLGERATINCKSSESVDSYANSFMHWYQQKPGQPPKLLIYRASTRESGVPDRFSGSGSGTDFTLTISSLQAEDVAVYYCQQSKEDPLTFGGGTKVEIKR	~30%		
[224G11][Hz3] (antibody, V domains shown) VH: QVQLVQSGAEVKKPGASVKVSCKASGYIFTAYTMHWVRQAPGQGLEWMGWIKPNNGLANYAQKFQGRVTMTRDTSISTAYMELSRLRSDDTAVYYCARSEITTEFDYWGQGTLVTVSS VL: DIVMTQSPDSLAVSLGERATINCKSSESVDSYANSFLHWYQQKPGQPPKLLIYRASTRESGVPDRFSGSGSGTDFTLTISSLQAEDVAVYYCQQSKEDPLTFGGGTKVEIKR	~35%		
[224G11][MH chim] (antibody, human IgG1, V domains shown) VH: EVQLQQSGPELVKPGASVKISCKTSGYIFTAYTMHWVRQSLGESLDWIGGIKPNNGLANYNQKFKGKATLTVDKSSSTAYMDLRSLTSEDSAVYYCARSEITTEFDYWGQGTALTVSS VL: DIVLTQSPASLAVSLGQRATISCRASESVDSYANSFMHWYQQKPGQPPKLLIYRASNLESGIPARFSGSGSRTDFTLTINPVEADDVATYYCQQSKEDPLTFGSGTKLEMKR		79%	
[224G11][MUP9H chim] (antibody, human IgG1, V domains shown) VH: EVQLQQSGPELVKPGASVKISCKTSGYIFTAYTMHWVRQSLGESLDWIGGIKPNNGLANYNQKFKGKATLTVDKSSSTAYMDLRSLTSEDSAVYYCARSEITTEFDYWGQGTALTVSS VL: DIVLTQSPASLAVSLGQRATISCRASESVDSYANSFMHWYQQKPGQPPKLLIYRASNLESGIPARFSGSGSRTDFTLTINPVEADDVATYYCQQSKEDPLTFGSGTKLEMKR		78%	
[224G11][MMCH chim] (antibody, human IgG1, V domains shown) VH: EVQLQQSGPELVKPGASVKISCKTSGYIFTAYTMHWVRQSLGESLDWIGGIKPNNGLANYNQKFKGKATLTVDKSSSTAYMDLRSLTSEDSAVYYCARSEITTEFDYWGQGTALTVSS VL: DIVLTQSPASLAVSLGQRATISCRASESVDSYANSFMHWYQQKPGQPPKLLIYRASNLESGIPARFSGSGSRTDFTLTINPVEADDVATYYCQQSKEDPLTFGSGTKLEMKR		84%	
[224G11][TH7 chim] (antibody) heavy: not shown light: DIVLTQSPASLAVSLGQRATISCRASESVDSYANSFMHWYQQKPGQPPKLLIYRASNLESGIPARFSGSGSRTDFTLTINPVEADDVATYYCQQSKEDPLTFGSGTKLEMKRTVAAPSVFIFPPSDEQLKSGTASVVCLLNNFYPREAKVQWKVDNALQSGNSQESVTEQDSKDSTYSLSSTLTLSKADYEKHKVYACEVTHQGLSSPVTKSFNRGEC		93%	81%
[224G11][TH7 Hz1] (antibody, V domains shown) VH: QVQLVQSGAEVKKPGASVKVSCKASGYIFTAYTMHWVRQAPGQGLEWMGWIKPNNGLANYAQKFQGRVTMTRDTSISTAYMELSRLRSDDTAVYYCARSEITTEFDYWGQGTLVTVSS VL: DIVLTQSPDSLAVSLGERATINCKSSESVDSYANSFMHWYQQKPGQPPKLLIYRASTRESGVPDRFSGSGSRTDFTLTISSLQAEDVAVYYCQQSKEDPLTFGGGTKVEIKR			67%
[224G11][TH7 Hz3] (antibody, V domains shown) VH: QVQLVQSGAEVKKPGASVKVSCKASGYIFTAYTMHWVRQAPGQGLEWMGWIKPNNGLANYAQKFQGRVTMTRDTSISTAYMELSRLRSDDTAVYYCARSEITTEFDYWGQGTLVTVSS VL: DIVMTQSPDSLAVSLGERATINCKSSESVDSYANSFLHWYQQKPGQPPKLLIYRASTRESGVPDRFSGSGSGTDFTLTISSLQAEDVAVYYCQQSKEDPLTFGGGTKVEIKR			76%
